Results taken from patent publication US20140363428A1 (Chugai, published 2014).
Where a chain is given by its changes, count along the chain named. One block for each binder: values may come before it.

Biological target: T1, soluble human FcRn (heterodimer of FcRn alpha chain and beta2-microglobulin) (human, UniProt P55899 24-297; P61769 21-119)
T1 construct: Expressed in HEK293H and purified on IgG Sepharose; also called hFcRn
Experiment: SPR Biacore T100, antibody captured via protein L, hFcRn analyte, pH 7.0, 25 C;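 note: KD derived from kinetic ka and kd fits of sensorgrams, CM4 sensor chip, sodium phosphate NaCl Tween20 running buffer, buffer-only injection used as reference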
Protocol: An appropriate amount of protein L (ACTIGEN) was immobilized onto Sensor chip CM4 (GE Healthcare) by the amino coupling method, and the chip was allowed to capture an antibody of interest. Then, diluted FcRn solutions and running buffer (as a reference solution) were injected to allow human FcRn to interact with the antibody captured on the sensor chip. The running buffer used comprised 50 mmol/l sodium phosphate, 150 mmol/l NaCl, and 0.05% (w/v) Tween20 (pH 7.0). FcRn was diluted using each buffer. The chip was regenerated using 10 mmol/l glycine-HCl (pH 1.5). Assays were carried out exclusively at 25 degrees C. The association rate constant ka (1/Ms) and dissociation rate constant kd (1/s), both of which are kinetic parameters, were calculated based on the sensorgrams obtained in the assays, and KD (M) of each antibody for human FcRn was determined from these values. Each parameter was calculated using Biacore T100 Evaluation Software (GE Healthcare).

B1: IgG1-F1069 (antibody)
heavy: QVQLQESGPGLVKPSETLSLTCAVSGHSISHDHAWSWVRQPPGEGLEWIGFISYSGITNYNPSLQGRVTISRDNSKNTLYLQMNSLRAEDTAVYYCARSLARTTAMDYWGEGTLVTVSSASTKGPSVFPLAPSSKSTSGGTAALGCLVKDYFPEPVTVSWNSGALTSGVHTFPAVLQSSGLYSLSSVVTVPSSSLGTQTYICNVNHKPSNTKVDKKVEPKSCDKTHTCPPCPAPELLGGPSVFLFPPKPKDTLYISRTPEVTCVVVDVSHEDPEVKFNWYVDGVEVHNAKTKPREEQYNSTYRVVSVLTVLHQDWLNGKEYKCKVSNKALPAPIEKTISKAKGQPREPQVYTLPPSRDELTKNQVSLTCLVKGFYPSDIAVEWESNGQPENNYKTTPPVLDSDGSFFLYSKLTVDKSRWQQGNVFSCSVMHEALHYHVTEKSLSLSP
light: not shown
notes: VH3-IgG1 with Fc substitutions (EU numbering) + L(WT)-CK
Kd: 140 nM

B2: IgG1-F1111 (antibody)
heavy: B1 heavy with S426K, E440Q
light: not shown
notes: as for B1
Kd: 160 nM

B3: IgG1-F1124 (antibody)
heavy: B1 heavy with T252V, T309Q, V310P, Q313A, E440R, S442E
light: not shown
notes: as for B1
Kd: 12 nM

B11: IgG1-F1105 (antibody)
heavy: B1 heavy with V424S, S426R, E440Q
light: not shown
notes: as for B1
Kd: 150 nM

B14: IgG1-F1076 (antibody)
heavy: B1 heavy with S241D, K328D, L330Y, E440Q
light: not shown
notes: as for B1
Kd: 130 nM

B16: IgG1-F1095 (antibody)
heavy: B1 heavy with S385N, G387S, V438Y, E440Q
light: not shown
notes: as for B1
Kd: 290 nM

B17: IgG1-F1072 (antibody)
heavy: B1 heavy with E440Q, S442E
light: not shown
notes: as for B1
Kd: 130 nM

B18: IgG1-F1101 (antibody)
heavy: B1 heavy with S241D, T309Q, Q313A, V438Y, E440Q
light: not shown
notes: as for B1
Kd: 66 nM

B19: IgG1-F1104 (antibody)
heavy: B1 heavy with V424E, S426R, E440Q
light: not shown
notes: as for B1
Kd: 180 nM

B21: IgG1-F1080 (antibody)
heavy: B1 heavy with S426N, V438Y, E440Q
light: not shown
notes: as for B1
Kd: 320 nM

B22: IgG1-F1098 (antibody)
heavy: B1 heavy with S241D, V438Y, E440Q
light: not shown
notes: as for B1
Kd: 260 nM

B24: IgG1-F1107 (antibody)
heavy: B1 heavy with V424D, E440Q
light: not shown
notes: as for B1
Kd: 120 nM

B29: IgG1-F1117 (antibody)
heavy: B1 heavy with T252V, T309Q, Q313A, S426N, E440Q
light: not shown
notes: as for B1
Kd: 49 nM

B30: IgG1-F1070 (antibody)
heavy: B1 heavy with E440R
light: not shown
notes: as for B1
Kd: 170 nM

B31: IgG1-F1074 (antibody)
heavy: B1 heavy with S241D, E440Q
light: not shown
notes: as for B1
Kd: 130 nM

B33: IgG1-F1082 (antibody)
heavy: B1 heavy with V438Y, E440N
light: not shown
notes: as for B1
Kd: 280 nM

B34: IgG1-F1071 (antibody)
heavy: B1 heavy with E440S
light: not shown
notes: as for B1
Kd: 120 nM

B40: IgG1-F1083 (antibody)
heavy: B1 heavy with V438Y, E440Q, S442N
light: not shown
notes: as for B1
Kd: 350 nM

Other lines, results leading:

Kd: 340 nM
B4: IgG1-F1079 (antibody)
heavy: B1 heavy with E384N, N386S, V438Y, E440Q
light: not shown
notes: as for B1

Kd: 280 nM
B5: IgG1-F1097 (antibody)
heavy: B1 heavy with G387N, P389S, V438Y, E440Q
light: not shown
notes: as for B1

Kd: 130 nM
B6: IgG1-F1109 (antibody)
heavy: B1 heavy with V424T, E440Q
light: not shown
notes: as for B1

Kd: 240 nM
B7: IgG1-F1100 (antibody)
heavy: B1 heavy with S241D, K328D, L330Y, V438Y, E440Q
light: not shown
notes: as for B1

Kd: 9.5 nM
B8: IgG1-F1123 (antibody)
heavy: B1 heavy with T252V, T309Q, V310P, Q313A, E440Q, S442E
light: not shown
notes: as for B1

Kd: 130 nM
B9: IgG1-F1108 (antibody)
heavy: B1 heavy with V424K, E440Q
light: not shown
notes: as for B1

Kd: 120 nM
B10: IgG1-F1112 (antibody)
heavy: B1 heavy with E440K
light: not shown
notes: as for B1

Kd: 140 nM
B12: IgG1-F1106 (antibody)
heavy: B1 heavy with E440R, S442E
light: not shown
notes: as for B1

Kd: 130 nM
B13: IgG1-F1073 (antibody)
heavy: B1 heavy with E440Q, S442R
light: not shown
notes: as for B1

Kd: 10 nM
B15: IgG1-F1121 (antibody)
heavy: B1 heavy with T252V, T309Q, V310P, Q313A, V424E, S426R, E440Q
light: not shown
notes: as for B1

Kd: 10 nM
B20: IgG1-F1120 (antibody)
heavy: B1 heavy with T252V, T309Q, V310P, Q313A, S426R, E440Q
light: not shown
notes: as for B1

Kd: 130 nM
B23: IgG1-F1115 (antibody)
heavy: B1 heavy with S426N, E440Q
light: not shown
notes: as for B1

Kd: 120 nM
B25: IgG1-F1113 (antibody)
heavy: B1 heavy with E440Q, S442D
light: not shown
notes: as for B1

Kd: 270 nM
B26: IgG1-F1096 (antibody)
heavy: B1 heavy with Q388T, V438Y, E440Q
light: not shown
notes: as for B1

Kd: 74 nM
B27: IgG1-F1116 (antibody)
heavy: B1 heavy with T309Q, Q313A, S426N, V438Y, E440Q
light: not shown
notes: as for B1

Kd: 14 nM
B28: IgG1-F1122 (antibody)
heavy: B1 heavy with T252V, T309Q, V310P, Q313A, E440R
light: not shown
notes: as for B1

Kd: 2000 nM
B32: IgG1-F1077 (antibody)
heavy: B1 heavy with K250N, V438Y, E440Q
light: not shown
notes: as for B1

Kd: 65 nM
B35: IgG1-F1102 (antibody)
heavy: B1 heavy with T309Q, Q313A, K328D, L330Y, V438Y, E440Q
light: not shown
notes: as for B1

Kd: 10 nM
B36: IgG1-F1119 (antibody)
heavy: B1 heavy with T252V, T309Q, V310P, Q313A, V424E, E440Q
light: not shown
notes: as for B1

Kd: 130 nM
B37: IgG1-F1114 (antibody)
heavy: B1 heavy with E440Q, S442Q
light: not shown
notes: as for B1

Kd: 13 nM
B38: IgG1-F1118 (antibody)
heavy: B1 heavy with T252V, T309Q, V310P, Q313A, S426N, E440Q
light: not shown
notes: as for B1

Kd: 130 nM
B39: IgG1-F1110 (antibody)
heavy: B1 heavy with V424Q, E440Q
light: not shown
notes: as for B1

Kd: 260 nM
B41: IgG1-F1099 (antibody)
heavy: B1 heavy with K328D, L330Y, V438Y, E440Q
light: not shown
notes: as for B1

Kd: 61 nM
B42: IgG1-F1103 (antibody)
heavy: B1 heavy with S241D, T309Q, Q313A, K328D, L330Y, V438Y, E440Q
light: not shown
notes: as for B1
